# Laboratory results reported in PMC5201011 (2016).
# B1: GST–Tks5-PX [not stated] / FLAG–Rab40b [not stated] (parent complex)
# chain 1: YCVQDATVVDVEKRRNPSKHYVYIINVTWSDSTSQTIYRRYSKFFDLQMQLLDKFPIEGGQKDPKQRIIPFLPGKILFRRSHIRDVAVKRLKPIDEYCRALVRLPPHISQCDEVFRFFEARPEDV
# chain 2: MSALGSPVRAYDFLLKFLLVGDSDVGKGEILASLQDGAAESPYGHPAGIDYKTTTILLDGRRVKLQLWDTSGQGRFCTIFRSYSRGAQGVILVYDIANRWSFDGIDRWIKEIDEHAPGVPKILVGNRLHLAFKRQVPTEQAQAYAERLGVTFFEVSPLCNFNITESFTELARIVLLRHGMDRLWRPSKVLSLQDLCCRAVVSCTPVHLVDKLPLPIALRSHLKSFSMANGLNARMMHGGSYSLTTSSTHKRSSLRKVKLVRPPQSPPKNCTRNSCKIS
# Variants of: B1
# Assay: glutathione bead pulldown, quantified immunoblot; three independent experiments; parent: 1; read off a plot
row,Variant,response [Arbitrary Units]
1,chain 1 I24A,~0.86
2,chain 1 Y21A,~0.57
